The source of these data is paper PMC6639331.

The target in assay [1] is CCR4a, full length (human) (human) (UniProt Q9ULM6). Description: co-purification (metal affinity, SEC, anion exchange); CCR4a and CAF1 co-expressed in E. coli; nickel IMAC, tags cleaved by TEV, Superdex 200 in 10 mM HEPES/NaOH pH 7.5, 300 mM NaCl, 2 mM DTT, then Source 15Q.
In assay [2] the target is NOT1:NOT2:NOT3:CAF40 subcomplex (full-length subunits) (human) (UniProt A5YKK6). Kind of assay: SEC-MALS; reconstituted CCR4-NOT FULL, 40 ul at 0.9 mg/ml, Superose 6 5/150 in 10 mM HEPES/NaOH pH 7.5, 200 mM NaCl; SDS-PAGE with Coomassie staining of the complex.
Chain of NOT1:NOT2:NOT3:CAF40 subcomplex (full-length subunits) (human) (A5YKK6 whole entry, chain 1 of 4): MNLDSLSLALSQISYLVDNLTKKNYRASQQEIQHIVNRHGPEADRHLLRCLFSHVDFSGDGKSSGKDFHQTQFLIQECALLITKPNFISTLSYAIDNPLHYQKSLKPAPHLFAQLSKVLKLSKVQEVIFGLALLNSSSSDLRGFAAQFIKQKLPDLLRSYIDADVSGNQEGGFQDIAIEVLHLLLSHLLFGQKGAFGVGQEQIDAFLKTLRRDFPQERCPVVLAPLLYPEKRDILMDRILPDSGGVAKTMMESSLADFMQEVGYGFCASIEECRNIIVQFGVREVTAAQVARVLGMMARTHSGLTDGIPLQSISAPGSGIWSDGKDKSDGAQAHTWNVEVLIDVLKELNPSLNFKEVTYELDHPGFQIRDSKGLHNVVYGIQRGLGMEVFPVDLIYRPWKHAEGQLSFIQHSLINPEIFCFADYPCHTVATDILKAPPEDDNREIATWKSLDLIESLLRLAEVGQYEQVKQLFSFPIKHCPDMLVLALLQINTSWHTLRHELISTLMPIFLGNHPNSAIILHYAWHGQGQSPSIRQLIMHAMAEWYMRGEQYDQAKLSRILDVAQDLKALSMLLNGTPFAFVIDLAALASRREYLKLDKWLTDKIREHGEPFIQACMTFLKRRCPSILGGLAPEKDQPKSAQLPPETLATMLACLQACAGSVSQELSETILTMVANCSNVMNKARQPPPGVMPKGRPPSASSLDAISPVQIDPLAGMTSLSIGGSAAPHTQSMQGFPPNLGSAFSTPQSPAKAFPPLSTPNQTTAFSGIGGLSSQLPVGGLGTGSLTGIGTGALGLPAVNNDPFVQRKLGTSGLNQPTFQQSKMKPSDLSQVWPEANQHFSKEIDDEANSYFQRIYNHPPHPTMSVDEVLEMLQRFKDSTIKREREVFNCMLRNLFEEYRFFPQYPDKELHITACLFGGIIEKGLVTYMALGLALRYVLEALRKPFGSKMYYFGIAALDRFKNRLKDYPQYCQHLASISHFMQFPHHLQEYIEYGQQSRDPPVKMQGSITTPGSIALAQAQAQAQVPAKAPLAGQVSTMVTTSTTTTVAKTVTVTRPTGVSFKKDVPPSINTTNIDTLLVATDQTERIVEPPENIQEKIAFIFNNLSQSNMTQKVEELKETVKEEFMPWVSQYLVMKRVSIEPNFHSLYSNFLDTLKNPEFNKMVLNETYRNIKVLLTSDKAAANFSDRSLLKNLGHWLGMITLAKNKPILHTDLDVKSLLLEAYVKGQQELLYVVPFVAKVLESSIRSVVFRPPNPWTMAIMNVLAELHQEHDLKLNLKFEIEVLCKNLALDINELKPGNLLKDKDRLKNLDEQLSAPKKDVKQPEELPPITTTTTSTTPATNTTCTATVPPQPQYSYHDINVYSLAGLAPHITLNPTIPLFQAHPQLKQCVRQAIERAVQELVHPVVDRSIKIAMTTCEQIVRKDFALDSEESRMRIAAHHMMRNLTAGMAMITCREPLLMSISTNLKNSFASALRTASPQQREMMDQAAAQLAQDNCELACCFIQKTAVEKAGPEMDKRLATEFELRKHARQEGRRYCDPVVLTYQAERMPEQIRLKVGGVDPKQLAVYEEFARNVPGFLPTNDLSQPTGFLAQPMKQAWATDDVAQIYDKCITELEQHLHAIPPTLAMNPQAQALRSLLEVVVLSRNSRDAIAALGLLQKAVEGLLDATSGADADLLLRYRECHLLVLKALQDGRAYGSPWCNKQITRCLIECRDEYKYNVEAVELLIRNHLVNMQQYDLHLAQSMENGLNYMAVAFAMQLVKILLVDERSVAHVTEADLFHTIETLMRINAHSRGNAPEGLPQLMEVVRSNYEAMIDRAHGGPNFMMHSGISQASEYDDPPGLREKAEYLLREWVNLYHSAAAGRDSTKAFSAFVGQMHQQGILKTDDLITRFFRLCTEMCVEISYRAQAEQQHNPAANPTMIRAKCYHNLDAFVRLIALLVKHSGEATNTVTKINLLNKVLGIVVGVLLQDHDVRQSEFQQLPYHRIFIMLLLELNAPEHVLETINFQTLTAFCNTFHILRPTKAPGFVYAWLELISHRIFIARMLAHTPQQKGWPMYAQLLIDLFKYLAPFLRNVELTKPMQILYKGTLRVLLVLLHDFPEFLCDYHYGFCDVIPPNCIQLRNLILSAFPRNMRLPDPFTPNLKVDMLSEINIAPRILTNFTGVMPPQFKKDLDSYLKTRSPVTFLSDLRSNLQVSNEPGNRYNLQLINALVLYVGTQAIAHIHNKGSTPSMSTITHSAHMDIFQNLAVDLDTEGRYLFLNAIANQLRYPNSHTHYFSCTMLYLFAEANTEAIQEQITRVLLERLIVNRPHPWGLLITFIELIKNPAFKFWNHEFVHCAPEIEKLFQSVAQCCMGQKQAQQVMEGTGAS
Chain of NOT1:NOT2:NOT3:CAF40 subcomplex (full-length subunits) (human) (Q9NZN8 whole entry, chain 2 of 4, further chain): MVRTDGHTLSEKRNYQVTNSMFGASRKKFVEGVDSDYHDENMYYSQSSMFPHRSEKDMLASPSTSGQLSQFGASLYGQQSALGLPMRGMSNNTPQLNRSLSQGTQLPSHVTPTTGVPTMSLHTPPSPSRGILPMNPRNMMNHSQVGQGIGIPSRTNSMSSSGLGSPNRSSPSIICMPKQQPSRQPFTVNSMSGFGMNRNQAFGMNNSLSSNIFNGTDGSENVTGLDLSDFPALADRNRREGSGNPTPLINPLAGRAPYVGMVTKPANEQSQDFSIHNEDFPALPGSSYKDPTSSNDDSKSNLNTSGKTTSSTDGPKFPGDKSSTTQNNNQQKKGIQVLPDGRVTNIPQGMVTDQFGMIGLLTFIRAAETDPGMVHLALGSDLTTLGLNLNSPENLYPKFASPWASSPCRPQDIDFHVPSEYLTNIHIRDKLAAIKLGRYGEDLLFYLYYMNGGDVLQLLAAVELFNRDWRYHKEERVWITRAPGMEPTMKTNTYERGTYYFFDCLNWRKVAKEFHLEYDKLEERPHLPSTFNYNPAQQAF
Chain of NOT1:NOT2:NOT3:CAF40 subcomplex (full-length subunits) (human) (O75175 whole entry, chain 3 of 4, further chain): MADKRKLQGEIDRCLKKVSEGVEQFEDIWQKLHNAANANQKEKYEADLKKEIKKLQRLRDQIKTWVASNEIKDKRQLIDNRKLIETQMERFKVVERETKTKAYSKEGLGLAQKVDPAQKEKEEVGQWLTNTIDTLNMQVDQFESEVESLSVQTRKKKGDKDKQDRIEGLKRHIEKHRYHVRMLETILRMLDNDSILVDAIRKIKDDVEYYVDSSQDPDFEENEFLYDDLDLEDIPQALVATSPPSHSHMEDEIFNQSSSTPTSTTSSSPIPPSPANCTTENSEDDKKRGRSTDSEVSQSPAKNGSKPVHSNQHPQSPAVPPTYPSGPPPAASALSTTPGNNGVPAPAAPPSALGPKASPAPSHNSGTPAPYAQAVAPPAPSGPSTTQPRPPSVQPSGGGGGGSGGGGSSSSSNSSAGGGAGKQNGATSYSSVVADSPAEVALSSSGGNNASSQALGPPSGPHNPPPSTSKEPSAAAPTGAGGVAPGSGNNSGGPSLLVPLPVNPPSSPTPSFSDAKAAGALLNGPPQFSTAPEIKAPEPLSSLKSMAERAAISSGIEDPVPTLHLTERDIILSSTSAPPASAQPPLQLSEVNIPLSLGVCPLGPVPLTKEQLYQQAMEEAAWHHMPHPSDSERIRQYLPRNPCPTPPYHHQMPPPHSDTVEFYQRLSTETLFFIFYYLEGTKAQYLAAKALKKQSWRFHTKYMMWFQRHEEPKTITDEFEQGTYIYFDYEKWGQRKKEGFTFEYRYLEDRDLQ
Chain of NOT1:NOT2:NOT3:CAF40 subcomplex (full-length subunits) (human) (Q92600 whole entry, chain 4 of 4, further chain): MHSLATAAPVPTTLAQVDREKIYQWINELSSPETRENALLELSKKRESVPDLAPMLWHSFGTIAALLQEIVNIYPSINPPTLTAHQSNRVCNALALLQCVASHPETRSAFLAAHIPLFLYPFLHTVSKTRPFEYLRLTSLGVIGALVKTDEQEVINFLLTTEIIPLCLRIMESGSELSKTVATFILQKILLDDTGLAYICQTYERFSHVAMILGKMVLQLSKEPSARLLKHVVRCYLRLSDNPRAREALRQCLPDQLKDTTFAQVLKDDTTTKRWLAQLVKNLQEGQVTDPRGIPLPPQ

Chain of CAF1, full length (human) (Q9UIV1 whole entry): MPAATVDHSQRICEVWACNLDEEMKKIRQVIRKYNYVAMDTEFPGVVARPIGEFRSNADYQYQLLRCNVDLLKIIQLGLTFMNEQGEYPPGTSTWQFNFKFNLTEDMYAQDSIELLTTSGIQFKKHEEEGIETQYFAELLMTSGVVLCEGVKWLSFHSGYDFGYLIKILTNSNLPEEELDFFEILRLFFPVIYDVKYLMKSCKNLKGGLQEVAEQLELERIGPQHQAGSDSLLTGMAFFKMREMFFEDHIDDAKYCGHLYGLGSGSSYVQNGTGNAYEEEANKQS
Chain of CCR4a, full length (human) (human) (Q9ULM6 whole entry): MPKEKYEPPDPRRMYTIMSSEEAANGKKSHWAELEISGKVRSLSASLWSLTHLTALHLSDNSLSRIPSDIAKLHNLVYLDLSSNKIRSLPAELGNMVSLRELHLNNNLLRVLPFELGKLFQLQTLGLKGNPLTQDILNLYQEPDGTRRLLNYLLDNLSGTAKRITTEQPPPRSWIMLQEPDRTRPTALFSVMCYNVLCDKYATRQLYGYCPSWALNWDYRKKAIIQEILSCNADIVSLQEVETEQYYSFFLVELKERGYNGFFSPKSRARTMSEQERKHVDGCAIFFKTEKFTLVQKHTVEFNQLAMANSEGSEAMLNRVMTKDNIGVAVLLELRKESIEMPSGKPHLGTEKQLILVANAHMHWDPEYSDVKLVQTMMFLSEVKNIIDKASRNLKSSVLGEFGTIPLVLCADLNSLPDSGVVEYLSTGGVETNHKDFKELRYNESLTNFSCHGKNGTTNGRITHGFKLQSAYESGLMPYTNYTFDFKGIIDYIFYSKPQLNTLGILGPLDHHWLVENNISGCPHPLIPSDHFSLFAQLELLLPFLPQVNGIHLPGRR

Turning to “CAF1, full length (human) (from UniProt Q9UIV1 1-285) (enzyme)”, the stoichiometry N (usually the number of molecules, sites or subunits per partner or assembly) in assay [1] was 1.

For the substance “CCR4a:CAF1 exonuclease heterodimer (wild type) (from UniProt Q9ULM6 1-557; Q9UIV1 1-285) (complex)”, the stoichiometry N in assay [2] turned out to be 1.
